Source: PMC12008863 (Journal of Translational Medicine, 2025)

Columns and labels:
[1] = molecular target: T1, Transthyretin (human, amino acids 21-147, recombinant) (human, UniProt P02766 21-147); assay: SPR
[2] = molecular target: T1, Transthyretin (human, amino acids …); assay: Langmuir equilibrium adsorption

- Kd [1]: 3.68 µM
- Kd [2]: 7.13 µM
B1: Heterogeneous nuclear ribonucleoprotein A2B1 (human, amino acids 12-195, recombinant) (domain or fragment)
chain: RKKREKEQFRKLFIGGLSFETTEESLRNYYEQWGKLTDCVVMRDPASKRSRGFGFVTFSSMAEVDAAMAARPHSIDGRVVEPKRAVAREESGKPGAHVTVKKLFVGGIKEDTEEHHLRDYFEEYGKIDTIEIITDRQSGKKRGFGFVTFDDHDPVDKIVLQKYHTINGHNAEVRKALSRQEMQE
